Values quoted from earlier work, collected in publication PMC10570509.

Target: OSMRβ (Homo sapiens) (UniProt Q99650)
UniProt Q99650, sequence (Q99650 28-740): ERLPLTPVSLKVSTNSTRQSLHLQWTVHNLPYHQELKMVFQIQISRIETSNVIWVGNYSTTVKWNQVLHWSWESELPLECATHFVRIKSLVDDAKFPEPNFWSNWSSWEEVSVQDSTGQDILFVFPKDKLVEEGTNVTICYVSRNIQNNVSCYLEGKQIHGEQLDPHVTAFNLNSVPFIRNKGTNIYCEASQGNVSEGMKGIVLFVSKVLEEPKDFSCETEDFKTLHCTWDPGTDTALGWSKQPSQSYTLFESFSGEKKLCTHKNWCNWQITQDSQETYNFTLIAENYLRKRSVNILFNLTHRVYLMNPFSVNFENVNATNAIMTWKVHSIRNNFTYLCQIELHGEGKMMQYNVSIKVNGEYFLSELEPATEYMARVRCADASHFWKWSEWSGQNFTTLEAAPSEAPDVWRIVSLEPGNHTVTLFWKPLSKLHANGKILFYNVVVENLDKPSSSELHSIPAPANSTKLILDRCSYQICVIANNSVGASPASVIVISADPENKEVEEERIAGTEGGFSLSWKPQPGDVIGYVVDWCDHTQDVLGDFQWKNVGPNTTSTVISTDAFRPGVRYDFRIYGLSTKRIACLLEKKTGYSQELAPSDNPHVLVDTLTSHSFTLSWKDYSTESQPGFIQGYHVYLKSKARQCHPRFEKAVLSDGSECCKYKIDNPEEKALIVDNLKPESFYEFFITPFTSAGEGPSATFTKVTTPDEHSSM

- Kd: 150 pM
Substance: Oncostatin M (from UniProt P13725)
